B1: SS-torsinA^WT-EGFP (natural protein, UniProt O14656 21-332, looked up)
chain: VEPISLGLALAGVLTGYIYPRLYCLFAECCGQKRSLSREALQKDLDDNLFGQHLAKKIILNAVFGFINNPKPKKPLTLSLHGWTGTGKNFVSKIIAENIYEGGLNSDYVHLFVATLHFPHASNITLYKDQLQLWIRGNVSACARSIFIFDEMDKMHAGLIDAIKPFLDYYDLVDGVSYQKAMFIFLSNAGAERITDVALDFWRSGKQREDIKLKDIEHALSVSVFNNKNSGFWHSSLIDRNLIDYFVPFLPLEYKHLKMCIRVEMQSRGYEIDEDIVSRVAEEMTFFPKEERVFSDKGCKTVFTKLDYYYDD
B2: SS-EGFP-torsinA^WT (natural protein, UniProt O14656 21-332, looked up)
chain: VEPISLGLALAGVLTGYIYPRLYCLFAECCGQKRSLSREALQKDLDDNLFGQHLAKKIILNAVFGFINNPKPKKPLTLSLHGWTGTGKNFVSKIIAENIYEGGLNSDYVHLFVATLHFPHASNITLYKDQLQLWIRGNVSACARSIFIFDEMDKMHAGLIDAIKPFLDYYDLVDGVSYQKAMFIFLSNAGAERITDVALDFWRSGKQREDIKLKDIEHALSVSVFNNKNSGFWHSSLIDRNLIDYFVPFLPLEYKHLKMCIRVEMQSRGYEIDEDIVSRVAEEMTFFPKEERVFSDKGCKTVFTKLDYYYDD
B3: SS-EGFP-torsinA^50-332 (domain or fragment, UniProt O14656 50-332, looked up)
chain: CGQKRSLSREALQKDLDDNLFGQHLAKKIILNAVFGFINNPKPKKPLTLSLHGWTGTGKNFVSKIIAENIYEGGLNSDYVHLFVATLHFPHASNITLYKDQLQLWIRGNVSACARSIFIFDEMDKMHAGLIDAIKPFLDYYDLVDGVSYQKAMFIFLSNAGAERITDVALDFWRSGKQREDIKLKDIEHALSVSVFNNKNSGFWHSSLIDRNLIDYFVPFLPLEYKHLKMCIRVEMQSRGYEIDEDIVSRVAEEMTFFPKEERVFSDKGCKTVFTKLDYYYDD
B4: SS-EGFP-torsinA^ΔNTD (natural protein, UniProt O14656 21-332, looked up)
chain: VEPISCLFAECCGQKRSLSREALQKDLDDNLFGQHLAKKIILNAVFGFINNPKPKKPLTLSLHGWTGTGKNFVSKIIAENIYEGGLNSDYVHLFVATLHFPHASNITLYKDQLQLWIRGNVSACARSIFIFDEMDKMHAGLIDAIKPFLDYYDLVDGVSYQKAMFIFLSNAGAERITDVALDFWRSGKQREDIKLKDIEHALSVSVFNNKNSGFWHSSLIDRNLIDYFVPFLPLEYKHLKMCIRVEMQSRGYEIDEDIVSRVAEEMTFFPKEERVFSDKGCKTVFTKLDYYYDD

Target: the molecule itself
Assay: fluorescence fluctuation spectroscopy

Protein | normalized brightness b | stoichiometry N
B1 | > 3 | 
B2 |  | ≥ 3
B3 | ~8 | 
B4 | ~13 | 
